In IntAct's records for PubMed 18682223:

B1: DNA polymerase processivity factor (Human cytomegalovirus (strain AD169) (HHV-5)), P16790 (parent)
chain: MDRKTRLSEPPTLALRLKPYKTAIQQLRSVIRALKENTTVTFLPTPSLILQTVRSHCVSKITFNSSCLYITDKSFQPKTINNSTPLLGNFMYLTSSKDLTKFYVQDISDLSAKISMCAPDFNMEFSSACVHGQDIVRESENSAVHVDLDFGVVADLLKWIGPHTRVKRNVKKAPCPTGTVQILVHAGPPAIKFILTNGSELEFTANNRVSFHGVKNMRINVQLKNFYQTLLNCAVTKLPCTLRIVTEHDTLLYVASRNGLFAVENFLTEEPFQRGDPFDKNYVGNSGKSRGGGGGGGSLSSLANAGGLHDDGPGLDNDLMNEPMGLGGLGGGGGGGGKKHDRGGGGGSGTRKMSSGGGGGDHDHGLSSKEKYEQHKITSYLTSKGGSGGGGGGGGGGLDRNSGNYFNDAKEESDSEDSVTFEFVPNTKKQKCG
partner: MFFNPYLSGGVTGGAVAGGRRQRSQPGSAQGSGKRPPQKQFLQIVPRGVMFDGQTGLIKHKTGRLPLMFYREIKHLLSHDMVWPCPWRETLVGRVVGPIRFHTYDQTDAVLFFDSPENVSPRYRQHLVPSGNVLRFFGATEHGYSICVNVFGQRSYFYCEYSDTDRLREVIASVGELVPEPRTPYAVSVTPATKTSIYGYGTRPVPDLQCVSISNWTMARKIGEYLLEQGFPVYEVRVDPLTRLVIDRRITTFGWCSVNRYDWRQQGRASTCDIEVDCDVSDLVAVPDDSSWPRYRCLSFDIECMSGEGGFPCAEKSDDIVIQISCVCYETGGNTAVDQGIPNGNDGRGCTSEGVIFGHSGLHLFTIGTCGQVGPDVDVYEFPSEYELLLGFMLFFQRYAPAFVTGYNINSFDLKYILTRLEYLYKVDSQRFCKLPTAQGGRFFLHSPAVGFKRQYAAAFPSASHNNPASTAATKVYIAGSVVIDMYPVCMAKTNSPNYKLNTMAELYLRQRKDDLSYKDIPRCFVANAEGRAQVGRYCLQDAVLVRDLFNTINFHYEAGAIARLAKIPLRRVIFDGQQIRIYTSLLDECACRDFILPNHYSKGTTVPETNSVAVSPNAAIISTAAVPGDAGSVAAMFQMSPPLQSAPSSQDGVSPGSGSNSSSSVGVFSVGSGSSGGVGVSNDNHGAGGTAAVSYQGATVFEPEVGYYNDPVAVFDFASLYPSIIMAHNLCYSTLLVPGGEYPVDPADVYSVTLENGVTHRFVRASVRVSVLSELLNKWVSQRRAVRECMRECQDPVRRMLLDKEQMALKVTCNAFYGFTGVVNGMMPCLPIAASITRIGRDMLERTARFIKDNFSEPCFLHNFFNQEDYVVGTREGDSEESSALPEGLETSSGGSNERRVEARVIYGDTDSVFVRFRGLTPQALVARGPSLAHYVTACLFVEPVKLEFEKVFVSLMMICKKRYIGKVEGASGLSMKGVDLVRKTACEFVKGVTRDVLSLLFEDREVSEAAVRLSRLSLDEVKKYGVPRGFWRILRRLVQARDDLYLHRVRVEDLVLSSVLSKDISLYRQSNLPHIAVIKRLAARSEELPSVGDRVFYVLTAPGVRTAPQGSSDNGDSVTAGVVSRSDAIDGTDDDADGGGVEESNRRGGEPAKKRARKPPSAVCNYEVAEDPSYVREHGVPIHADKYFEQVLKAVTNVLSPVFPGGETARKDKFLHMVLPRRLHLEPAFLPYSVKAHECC

Variants of: B1
Settings: with dpol_hcmva UL54, P08546

Row | Variant | effect of a mutation on the interaction
1 | K35A;K158A;K224A;K237A | decreasing interaction
2 | R165A;K167A;R168A;K171A;K172A | decreasing interaction
